In IntAct's records for PubMed 24705553:

B1: Autophagy-related protein 19 (Saccharomyces cerevisiae), P35193 (parent)
chain: MNNSKTNQQMNTSMGYPLTVYDECNKFQLIVPTLDANIMLWCIGQLSLLNDSNGCKHLFWQPNDKSNVRILLNNYDYGHLFKYLQCQRKCSVYIGEGTLKKYNLTISTSFDNFLDLTPSEEKESLCREDAHEDPVSPKAGSEEEISPNSTSNVVVSRECLDNFMKQLLKLEESLNKLELEQKVTNKEPNHRISGTIDIPEDRSELVNFFTELKTVKQLEDVFQRYHDYERLSQECDSKTEIASDHSKKETKIEVEPPNERSLQITMNQRDNSLYFQLFNNTNSVLAGNCKLKFTDAGDKPTTQIIDMGPHEIGIKEYKEYRYFPYALDLEAGSTIEIENQYGEVIFLGKYGSSPMINLRPPSRLSAESLQASQEPFYSFQIDTLPELDDSSIISTSISLSYDGDDNEKALTWEEL
partner: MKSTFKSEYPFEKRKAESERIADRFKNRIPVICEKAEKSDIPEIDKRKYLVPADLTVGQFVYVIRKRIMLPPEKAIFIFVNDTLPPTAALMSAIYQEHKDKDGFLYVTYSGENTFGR
B2: Autophagy-related protein 34 (Saccharomyces cerevisiae), Q12292 (parent)
chain: MKIAVETTLFDFFVIDQFKKSTFSAPNTKVDTIKGCINKFIEQFNVYDEQHIFWQPPGKSNVRLLSNANDFGQLGNFLHKKIKCNIFIGEEALRKYDLNICGPYDKFVENSDPSVKKVVNRDDVMLSRKCLNIISEQLSILEKSISKAQNQVLQSSEVEGKKCIILPEDKPELIKFFSKFETSVQLQEVYEGYKVYEKLLQKFGGQKKRMESFLNENTPMSGAEAIKQINISEELKEKGERLTTPNDPLLHVEVSNEDNSLHFILYNKTNIIIPGNCTFEFSSQISEVFSIKMGPHEIGIKGQKELWFFPSLPTPLSNYTMKVVNQDGETILVGKCADSNEITLKSPLASFSTGSFQTGSFHTLQDPTNVFRADALSSPDESSIMSTPFLGETDEVYNSGSTLSRPFTWEEI
partner: B1 partner

Variants of: B1
Details: with atg8_yeast ATG8, P38182

| Variant | effect of a mutation on the interaction |
| --- | --- |
| MNNSKTNQQMNTSMGYPLTVYDECNKFQLIVPTLDANIMLWCIGQLSLLNDSNGCKHLFWQPNDKSNVRILLNNYDYGHLFKYLQCQRKCSVYIGEGTLKKYNLTISTSFDNFLDLTPSEEKESLCREDAHEDPVSPKAGSEEEISPNSTSNVVVSRECLDNFMKQLLKLEESLNKLELEQKVTNKEPNHRISGTIDIPEDRSELVNFFTELKTVKQLEDVFQRYHDYERLSQECDSKTEIASDHSKKETKIEVEPPNERSLQITMNQRDNSLYFQLFNNTNSVLAGNCKLKFTDAGDKPTTQIIDMGPHEIGIKEYKEYRYFPYALDLEAGSTIEIENQYGEVIFLGKYGSSPMINLRPPSRLSAESLQASQEPFYSFQIDTLAALDDSSIISTSISLSYDGDDNEKALTAEEL [P385A;E386A;W412A] | decreasing interaction strength |
| MNNSKTNQQMNTSMGYPLTVYDECNKFQLIVPTLDANIMLWCIGQLSLLNDSNGCKHLFWQPNDKSNVRILLNNYDYGHLFKYLQCQRKCSVYIGEGTLKKYNLTISTSFDNFLDLTPSEEKESLCREDAHEDPVSPKAGSEEEISPNSTSNVVVSRECLDNFMKQLLKLEESLNKLELEQKVTNKEPNHRISGTIDIPEDRSELVNFFTELKTVKQLEDVFQRYHDYERLSQECDSKTEIASDHSKKETKIEVEPPNERSLQITMNQRDNSLYFQLFNNTNSVLAGNCKLKFTDAGDKPTTQIIDMGPHEIGIKEYKEYRYFPYALDLEAGSTIEIENQYGEVIFLGKYGSSPMINLRPPSRLSAESLQASQEPAYSAQIDTLAALDDSSIISTSISLSYDGDDNEKALTAEEL [F376A;F379A;P385A;E386A;W412A] | disrupting interaction strength |
| MNNSKTNQQMNTSMGYPLTVYDECNKFQLIVPTLDANIMLWCIGQLSLLNDSNGCKHLFWQPNDKSNVRILLNNYDYGHLFKYLQCQRKCSVYIGEGTLKKYNLTISTSFDNFLDLTPSEEKESLCREDAHEDPVSPKAGSEEEISPNSTSNVVVSRECLDNFMKQLLKLEESLNKLELEQKVTNKEPNHRISGTIDIPEDRSELVNFFTELKTVKQLEDVFQRYHDYERLSQECDSKTEIASDHSKKETKIEVEPPNERSLQITMNQRDNSLYFQLFNNTNSVLAGNCKLKFTDAGDKPTTQIIDMGPHEIGIKEYKEYRYFPYALDLEAGSTIEIENQYGEVIFLGKYGSSPMINLRPPSRLSAESLQASQEPFYSAQIDTLPELDDSSIISTSISLSYDGDDNEKALTAEEL [F379A;W412A] | decreasing interaction strength |

Variants of: B1
Details: with atg8_yeast ATG8, P38182
Remark: another data set of the same source

| Variant | effect of a mutation on the interaction |
| --- | --- |
| MNNSKTNQQMNTSMGYPLTVYDECNKFQLIVPTLDANIMLWCIGQLSLLNDSNGCKHLFWQPNDKSNVRILLNNYDYGHLFKYLQCQRKCSVYIGEGTLKKYNLTISTSFDNFLDLTPSEEKESLCREDAHEDPVSPKAGSEEEISPNSTSNVVVSRECLDNFMKQLLKLEESLNKLELEQKVTNKEPNHRISGTIDIPEDRSELVNFFTELKTVKQLEDVFQRYHDYERLSQECDSKTEIASDHSKKETKIEVEPPNERSLQITMNQRDNSLYFQLFNNTNSVLAGNCKLKFTDAGDKPTTQIIDMGPHEIGIKEYKEYRYFPYALDLEAGSTIEIENQYGEVIFLGKYGSSPMINLRPPSRLSAESLQASQEPFYSFQIDTLPELDDSSIISTSISLSYDGDDNEKALTAEEL [W412A] | decreasing interaction strength |

Variants of: B1
Details: with atg8_yeast ATG8, P38182
Remark: another data set of the same source

| Variant | effect of a mutation on the interaction |
| --- | --- |
| MNNSKTNQQMNTSMGYPLTVYDECNKFQLIVPTLDANIMLWCIGQLSLLNDSNGCKHLFWQPNDKSNVRILLNNYDYGHLFKYLQCQRKCSVYIGEGTLKKYNLTISTSFDNFLDLTPSEEKESLCREDAHEDPVSPKAGSEEEISPNSTSNVVVSRECLDNFMKQLLKLEESLNKLELEQKVTNKEPNHRISGTIDIPEDRSELVNFFTELKTVKQLEDVFQRYHDYERLSQECDSKTEIASDHSKKETKIEVEPPNERSLQITMNQRDNSLYFQLFNNTNSVLAGNCKLKFTDAGDKPTTQIIDMGPHEIGIKEYKEYRYFPYALDLEAGSTIEIENQYGEVIFLGKYGSSPMINLRPPSRLSAESLQASQEPAYSAQIDTLAALDDSSIISTSISLSYDGDDNEKALTAEEL [F376A;F379A;P385A;E386A;W412A] | decreasing interaction strength |
| MNNSKTNQQMNTSMGYPLTVYDECNKFQLIVPTLDANIMLWCIGQLSLLNDSNGCKHLFWQPNDKSNVRILLNNYDYGHLFKYLQCQRKCSVYIGEGTLKKYNLTISTSFDNFLDLTPSEEKESLCREDAHEDPVSPKAGSEEEISPNSTSNVVVSRECLDNFMKQLLKLEESLNKLELEQKVTNKEPNHRISGTIDIPEDRSELVNFFTELKTVKQLEDVFQRYHDYERLSQECDSKTEIASDHSKKETKIEVEPPNERSLQITMNQRDNSLYFQLFNNTNSVLAGNCKLKFTDAGDKPTTQIIDMGPHEIGIKEYKEYRYFPYALDLEAGSTIEIENQYGEVIFLGKYGSSPMINLRPPSRLSAESLQASQEPAYSAQIDTLPELDDSSIISTSISLSYDGDDNEKALTWEEL [F376A;F379A] | decreasing interaction strength |
| MNNSKTNQQMNTSMGYPLTVYDECNKFQLIVPTLDANIMLWCIGQLSLLNDSNGCKHLFWQPNDKSNVRILLNNYDYGHLFKYLQCQRKCSVYIGEGTLKKYNLTISTSFDNFLDLTPSEEKESLCREDAHEDPVSPKAGSEEEISPNSTSNVVVSRECLDNFMKQLLKLEESLNKLELEQKVTNKEPNHRISGTIDIPEDRSELVNFFTELKTVKQLEDVFQRYHDYERLSQECDSKTEIASDHSKKETKIEVEPPNERSLQITMNQRDNSLYFQLFNNTNSVLAGNCKLKFTDAGDKPTTQIIDMGPHEIGIKEYKEYRYFPYALDLEAGSTIEIENQYGEVIFLGKYGSSPMINLRPPSRLSAESLQASQEPAYSAQIDTLPELDDSSIISTSISLSYDGDDNEKALTAEEL [F376A;F379A;W412A] | decreasing interaction strength |

Variants of: B1
Details: with atg8_yeast ATG8, P38182
Remark: another data set of the same source

| Variant | effect of a mutation on the interaction |
| --- | --- |
| MNNSKTNQQMNTSMGYPLTVYDECNKFQLIVPTLDANIMLWCIGQLSLLNDSNGCKHLFWQPNDKSNVRILLNNYDYGHLFKYLQCQRKCSVYIGEGTLKKYNLTISTSFDNFLDLTPSEEKESLCREDAHEDPVSPKAGSEEEISPNSTSNVVVSRECLDNFMKQLLKLEESLNKLELEQKVTNKEPNHRISGTIDIPEDRSELVNFFTELKTVKQLEDVFQRYHDYERLSQECDSKTEIASDHSKKETKIEVEPPNERSLQITMNQRDNSLYFQLFNNTNSVLAGNCKLKFTDAGDKPTTQIIDMGPHEIGIKEYKEYRYFPYALDLEAGSTIEIENQYGEVIFLGKYGSSPMINLRPPSRLSAESLQASQEPAYSAQIDTLPELDDSSIISTSISLSYDGDDNEKALTAEEL [F376A;F379A;W412A] | disrupting interaction strength |

Variants of: B2
Details: with atg8_yeast ATG8, P38182

| Variant | effect of a mutation on the interaction |
| --- | --- |
| MKIAVETTLFDFFVIDQFKKSTFSAPNTKVDTIKGCINKFIEQFNVYDEQHIFWQPPGKSNVRLLSNANDFGQLGNFLHKKIKCNIFIGEEALRKYDLNICGPYDKFVENSDPSVKKVVNRDDVMLSRKCLNIISEQLSILEKSISKAQNQVLQSSEVEGKKCIILPEDKPELIKFFSKFETSVQLQEVYEGYKVYEKLLQKFGGQKKRMESFLNENTPMSGAEAIKQINISEELKEKGERLTTPNDPLLHVEVSNEDNSLHFILYNKTNIIIPGNCTFEFSSQISEVFSIKMGPHEIGIKGQKELWFFPSLPTPLSNYTMKVVNQDGETILVGKCADSNEITLKSPLASFSTGSFQTGSFHTLQDPTNVFRADALSSPDESSIMSTPFLGETDEVYNSGSTLSRPFTAEEI [W409A] | disrupting interaction strength |
